Measurements: the supplement of paper PMC10201428
± gives the standard deviation of the averaged measurements.

Tests used:
[1] = system: VchCAST RNA-guided transposition machinery (E. coli BL21(DE3) host, lacZ target); assay: relative integration efficiency (T-RL orientation) vs wild-type transposon end (log2 (normalized fold change)); transposon end mutated: right end (5 bp flank + 75 bp right end); higher = more efficient transposition
Procedure, shortened: (§1)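 Pools of 1549 left-end or 1849 right-end barcoded transposon variants were cloned into a pUC57 mini-transposon donor and co-transformed into E. coli BL21(DE3) with a T7-driven effector plasmid carrying a CRISPR array, tniQ-cas8-cas7-cas6 and tnsA-tnsB-tnsC. Plating used 0.1 mM IPTG at 37°C for 18 h, and input plasmids and genomic integration junctions were PCR-amplified for Illumina sequencing, with two biological output replicates and four reference barcodes. Relative integration efficiency is the log-transformed fold change of output over input barcode abundance, normalised to the reference barcodes.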

[2] = system: VchCAST RNA-guided transposition machinery (E. coli BL21(DE3) host, lacZ target); assay: relative integration efficiency (T-LR orientation) vs wild-type transposon end (log2 (normalized fold change)); transposon end mutated: right end (5 bp flank + 75 bp right end); higher = more efficient transposition
Procedure, shortened: as §1

Sequence | relative integration efficiency (log2) [1] | relative integration efficiency (log2) [2]
ACATTTGTTGATACAACCATCAAATGATAATTACACCCATCAATTGATAATTATCACACCCATCAATTGATATTGCCTCTGATCATAGTCAGACCAACATTGCTACGACCCGTATTCGCACCGACAC | -1.73 ± 0.26 | -1.14 ± 0.11
ACATTTGTTGATACAACCATCAAATGATAATTACACCCCTAAATTGATAATTATCACACCCAATTTAACTATAACGCTCTGATCATAGTCAGACCAACATTGCTACGACCCGTATTCGCACCGACAC | -3.41 ± 0.3 | -0.622 ± 0.093
ACATTTGTTGATACAACCATCAAATGATAATTACACCCCTACATTGATAATTATCACACCCAATTTAACTATAACGCTCTGATCATAGTCAGACCAACATTGCTACGACCCGTATTCGCACCGACAC | -4.12 ± 0.053 | -1.57 ± 0.21
ACATTTGTTGATACAACCATCAAATGATAATTCCACCCATAAATTGATAATTATCACACCCAATTTAACTATAACGCTCTGATCATAGTCAGACCAACATTGCTACGACCCGTATTCGCACCGACAC | -1.53 ± 0.19 | 1.44 ± 0.11
ACATTTGTTGATACAACCATCAAATGATAATTCCACCCATACATTGATAATTATCACACCCAATTTAACTATAACGCTCTGATCATAGTCAGACCAACATTGCTACGACCCGTATTCGCACCGACAC | -3.05 ± 0.042 | -0.154 ± 0.093
ACATTTGTTGATACAACCATCAAATGATAATTCCACCCCTAAATTGATAATTATCACACCCAATTTAACTATAACGCTCTGATCATAGTCAGACCAACATTGCTACGACCCGTATTCGCACCGACAC | -3.65 ± 0.074 | -1.01 ± 0.31
ACATTTGTTGATACAACCATCAAATGATAATTCCACCCCTACATTGATAATTATCACACCCAATTTAACTATAACGCTCTGATCATAGTCAGACCAACATTGCTACGACCCGTATTCGCACCGACAC | -4.18 ± 0.17 | -0.8 ± 0.15
ACATTTGTTGATACAACCATCAAATGGTAATTACACCCATAAATTGATAATTATCACACCCAATTTAACTATAACGCTCTGATCATAGTCAGACCAACATTGCTACGACCCGTATTCGCACCGACAC | -0.349 ± 0.42 | 2.24 ± 0.09
ACATTTGTTGATACAACCATCAAATGGTAATTACACCCATACATTGATAATTATCACACCCAATTTAACTATAACGCTCTGATCATAGTCAGACCAACATTGCTACGACCCGTATTCGCACCGACAC | -4.04 ± 0.11 | -1.54 ± 0.61
ACATTTGTTGATACAACCATCAAATGGTAATTACACCCCTAAATTGATAATTATCACACCCAATTTAACTATAACGCTCTGATCATAGTCAGACCAACATTGCTACGACCCGTATTCGCACCGACAC | -4.79 ± 0.36 | -2.01 ± 0.77
ACATTTGTTGATACAACCATCAAATGGTAATTACACCCCTACATTGATAATTATCACACCCAATTTAACTATAACGCTCTGATCATAGTCAGACCAACATTGCTACGACCCGTATTCGCACCGACAC | -5.5 ± 0.092 | -3.18 ± 1.1
ACATTTGTTGATACAACCATCAAATGGTAATTCCACCCATAAATTGATAATTATCACACCCAATTTAACTATAACGCTCTGATCATAGTCAGACCAACATTGCTACGACCCGTATTCGCACCGACAC | -2.06 ± 0.2 | 0.505 ± 0.11
ACATTTGTTGATACAACCATCAAATGGTAATTCCACCCATACATTGATAATTATCACACCCAATTTAACTATAACGCTCTGATCATAGTCAGACCAACATTGCTACGACCCGTATTCGCACCGACAC | -4.83 ± 0.15 | -2.28 ± 0.36
ACATTTGTTGATACAACCATCAAATGGTAATTCCACCCCTAAATTGATAATTATCACACCCAATTTAACTATAACGCTCTGATCATAGTCAGACCAACATTGCTACGACCCGTATTCGCACCGACAC | -5.34 ± 0.16 | -2.59 ± 0.29
ACATTTGTTGATACAACCATCAAATGGTAATTCCACCCCTACATTGATAATTATCACACCCAATTTAACTATAACGCTCTGATCATAGTCAGACCAACATTGCTACGACCCGTATTCGCACCGACAC | -5.71 ± 0.097 | -3.06 ± 0.11
ACATTTGTTGATACAACCATCCAATGATAATTACACCCATAAATTGATAATTATCACACCCATAAATTGATATTGCCTCTGATCATAGTCAGACCAACATTGCTACGACCCGTATTCGCACCGACAC | -1.36 ± 0.083 | -2.03 ± 0.58
ACATTTGTTGATACAACCATCCCCTGATAATTACACCCATAAATTGATAATTATCACACCCATAAATTGATATTGCCTCTGATCATAGTCAGACCAACATTGCTACGACCCGTATTCGCACCGACAC | -2.13 ± 0.056 | -1.78 ± 0.023
ACATTTGTTGATACAACCATCCCCTGATAATTACACCCATCCCGTGATAATTATCACACCCATCCCGTGATATTGCCTCTGATCATAGTCAGACCAACATTGCTACGACCCGTATTCGCACCGACAC | -5.99 ± 0.12 | -3.86 ± 0.83

Sequence | relative integration efficiency (log2) [1] | relative integration efficiency (log2) [2]
ACATTTGTTGATACAACCATTAAATAATAATTCCACCCATAAATTGATAATTATCACACCCAATTTAACTATAACGCTCTGATCATAGTCAGACCAACATTGCTACGACCCGTATTCGCACCGACAC | -1.71 ± 0.2 | 1.55 ± 0.071
ACATTTGTTGATACAACCATTAAATGATAATTACACCCAAAAATTGATAATTATCACACCCAATTTAACTATAACGCTCTGATCATAGTCAGACCAACATTGCTACGACCCGTATTCGCACCGACAC | -0.982 ± 0.24 | 2.03 ± 0.09
ACATTTGTTGATACAACCATTAAATGATAATTACACCCATAAATTGATAATAATGACACCGAATTTAACTATAACGCTCTGATCATAGTCAGACCAACATTGCTACGACCCGTATTCGCACCGACAC | -0.985 ± 0.22 | 1.98 ± 0.0099
ACATTTGTTGATACAACCATTAAATGATAATTACACCCATAAATTGATAATGATGACACCGAATTTAACTATAACGCTCTGATCATAGTCAGACCAACATTGCTACGACCCGTATTCGCACCGACAC | -1.3 ± 0.18 | 1.9 ± 0.16
ACATTTGTTGATACAACCATTAAATGATAATTACACCCATAAATTGATAATTGTGACACCGAATTTAACTATAACGCTCTGATCATAGTCAGACCAACATTGCTACGACCCGTATTCGCACCGACAC | -1.2 ± 0.14 | 1.99 ± 0.027
ACATTTGTTGATACAACCATTAAATGATAATTACACCCATAATTTGATAATTATCACACCCAATTTAACTATAACGCTCTGATCATAGTCAGACCAACATTGCTACGACCCGTATTCGCACCGACAC | -0.76 ± 0.025 | 2.23 ± 0.16
ACATTTGTTGATACAACCATTAAATGATAATTACACCCATATATTGATAATTATCACACCCAATTTAACTATAACGCTCTGATCATAGTCAGACCAACATTGCTACGACCCGTATTCGCACCGACAC | -0.809 ± 0.018 | 2.04 ± 0.065
ACATTTGTTGATACAACCATTAAATGATAATTACACCCATTAATTGATAATTATCACACCCATTAATTGATATTGCCTCTGATCATAGTCAGACCAACATTGCTACGACCCGTATTCGCACCGACAC | -0.515 ± 0.021 | -0.0993 ± 0.43
ACATTTGTTGATACAACCATTAAATGATAATTCCACCAATAAATTGATAATTATCACACCCAATTTAACTATAACGCTCTGATCATAGTCAGACCAACATTGCTACGACCCGTATTCGCACCGACAC | -1.51 ± 0.17 | 1.37 ± 0.042
ACATTTGTTGATACAACCATTAAATGATAATTCCACCCAAAAATTGATAATTATCACACCCAATTTAACTATAACGCTCTGATCATAGTCAGACCAACATTGCTACGACCCGTATTCGCACCGACAC | -0.813 ± 0.13 | 2.42 ± 0.24
ACATTTGTTGATACAACCATTAAATGATAATTCCACCCAAATATTGATAATTATCACACCCAATTTAACTATAACGCTCTGATCATAGTCAGACCAACATTGCTACGACCCGTATTCGCACCGACAC | -1.51 ± 0.05 | 1.47 ± 0.08
ACATTTGTTGATACAACCATTAAATGATAATTCCACCCAGAAATTGATAATTATCACACCCAATTTAACTATAACGCTCTGATCATAGTCAGACCAACATTGCTACGACCCGTATTCGCACCGACAC | -3.25 ± 0.24 | -0.278 ± 0.36
ACATTTGTTGATACAACCATTAAATGATAATTCCACCCATAAATTGATAATTATCACACCCAATTTAACTATAACGCTCTGATCATAGTCAGACCAACATTGCTACGACCCGTATTCGCACCGACAC | -1.06 ± 0.17 | 2.34 ± 0.17
ACATTTGTTGATACAACCATTAAATGATAATTCCACCCATAACTTGATAATTATCACACCCAATTTAACTATAACGCTCTGATCATAGTCAGACCAACATTGCTACGACCCGTATTCGCACCGACAC | -1.14 ± 0.15 | 1.93 ± 0.17
ACATTTGTTGATACAACCATTAAATGATAATTCCACCCATAATTTGATAATTATCACACCCAATTTAACTATAACGCTCTGATCATAGTCAGACCAACATTGCTACGACCCGTATTCGCACCGACAC | -0.743 ± 0.14 | 2.52 ± 0.061
ACATTTGTTGATACAACCATTAAATGATAATTCCACCCATACATTGATAATTATCACACCCAATTTAACTATAACGCTCTGATCATAGTCAGACCAACATTGCTACGACCCGTATTCGCACCGACAC | -2.63 ± 0.34 | 0.395 ± 0.29
ACATTTGTTGATACAACCATTAAATGATAATTCCACCCATATATTGATAATTATCACACCCAATTTAACTATAACGCTCTGATCATAGTCAGACCAACATTGCTACGACCCGTATTCGCACCGACAC | -1.24 ± 0.15 | 2.16 ± 0.074
